The text below walks through data of US20210388043A1.

The test addresses CD47 (human) (UniProt Q08722). Kind of test: cell binding (FACS); PC-3 cells. Particulars: Fc fusion.

Broadly, the EC50 is the concentration giving half of the maximal effect. Read a low EC50 as higher potency in that assay. Consider SIRPαD1-Fc, for which the EC50 amounted to 0.58 µg/mL.
